# From paper PMC3581536
# Target: MazFa tagged with 6 histidine at its C-terminus (Anabaena sp. PCC 7120)
# Assay: pull-down; MazEa and MazFa-His6 co-expressed in E. coli BL21(DE3)(pJS798); co-purified on Ni2+-NTA His.Bind resin under native conditions; 15% SDS-PAGE, bands identified by MALDI-TOF MS, densitometry with Image J
substance,measurement,value
MazEa (natural protein),stoichiometry N (MazEa per MazFa (molar ratio)),0.5
